According to patent US20220372132A1 (SG MEDICAL, published 2022):

How the values were obtained:
[1] = target: T1, recombinant human αVβ1 integrin (R&D Systems, USA) (human, UniProt P06756 31-992; P05556 21-728); assay: indirect ELISA, integrin coated at 1 µg/ml, HRP anti-human Fc detection
T1 construct: Bought heterodimer
Method: (§1) The affinities of the monoclonal antibody GP5 for various integrins were measured by indirect ELISA to determine the specificity of the monoclonal antibody GP5 for beta 1 integrin. Each of recombinant human αVβ1 integrin (R&D Systems, USA), αVβ3 integrin (R&D Systems, USA), αVβ5 integrin (R&D Systems, USA), αVβ6 integrin (R&D Systems, USA), αVβ8 integrin (R&D Systems, USA), α5β1 integrin (R&D Systems, USA), and α2bβ3 integrin (R&D Systems, USA) was diluted to 1 μg/ml in 50 μl of PBS, plated in a 96-well immune plate (Corning, USA), and stored at 4° C. overnight for its adsorption. After incubation with a buffer containing 3% bovine serum albumin (Millipore, USA) at 37° C. for 1 h, the wells were treated with the monoclonal antibody GP5 sequentially diluted to concentrations of 0.01, 0.03, 0.1, 0.3, 1, 3, 100, 300, and 1000 nM (50 μl/well). The well plate was incubated at 37° C. for 2 h to allow the antibody to bind to the antigen and washed 3 times with a buffer containing 0.5% Tween 20 (Amresco, USA). The wells were treated with HRP-labeled anti-human Fc IgG secondary antibody diluted 1:3000 with PBS (50 μl/well). The well plate was incubated at 37° C. for 1 h and washed 3 times with a buffer containing 0.5% Tween 20 (Amresco, USA). […] Absorbance was measured at 450 nm using a spectrophotometer (Biotek, USA).

[2] = target: T2, α5β1 integrin (R&D Systems, USA) (human, UniProt P08648 42-995; P05556 21-728); assay: as above
T2 construct: Bought heterodimer; also called recombinant human α5β1 integrin
Method: as §1

T2 sequence (P08648 42-995 limits assumed, chain 1 of 2): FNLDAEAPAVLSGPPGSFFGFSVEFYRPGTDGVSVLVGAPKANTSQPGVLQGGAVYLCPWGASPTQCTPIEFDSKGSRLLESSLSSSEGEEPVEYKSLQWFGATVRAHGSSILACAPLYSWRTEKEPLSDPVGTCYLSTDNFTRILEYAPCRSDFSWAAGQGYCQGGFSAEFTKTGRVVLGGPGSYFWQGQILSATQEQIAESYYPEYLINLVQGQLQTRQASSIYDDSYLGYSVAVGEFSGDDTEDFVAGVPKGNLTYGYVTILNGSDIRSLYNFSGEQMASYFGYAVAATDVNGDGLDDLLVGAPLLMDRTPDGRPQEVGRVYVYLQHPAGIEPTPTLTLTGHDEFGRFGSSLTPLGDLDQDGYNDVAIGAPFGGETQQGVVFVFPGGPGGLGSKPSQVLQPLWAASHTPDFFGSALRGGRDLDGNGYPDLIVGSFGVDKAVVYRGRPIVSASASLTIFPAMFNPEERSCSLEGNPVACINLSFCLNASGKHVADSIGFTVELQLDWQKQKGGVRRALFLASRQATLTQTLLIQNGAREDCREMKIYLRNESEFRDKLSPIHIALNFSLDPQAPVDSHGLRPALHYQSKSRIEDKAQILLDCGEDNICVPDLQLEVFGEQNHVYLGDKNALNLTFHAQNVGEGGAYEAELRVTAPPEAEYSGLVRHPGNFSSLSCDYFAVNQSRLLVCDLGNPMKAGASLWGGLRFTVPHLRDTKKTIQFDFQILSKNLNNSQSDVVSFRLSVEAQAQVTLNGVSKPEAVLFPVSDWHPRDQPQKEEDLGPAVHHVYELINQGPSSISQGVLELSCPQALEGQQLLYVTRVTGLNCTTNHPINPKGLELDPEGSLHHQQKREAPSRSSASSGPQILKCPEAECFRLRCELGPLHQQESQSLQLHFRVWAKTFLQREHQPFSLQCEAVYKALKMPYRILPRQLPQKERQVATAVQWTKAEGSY
T2 sequence (P05556 21-728 limits assumed, chain 2 of 2): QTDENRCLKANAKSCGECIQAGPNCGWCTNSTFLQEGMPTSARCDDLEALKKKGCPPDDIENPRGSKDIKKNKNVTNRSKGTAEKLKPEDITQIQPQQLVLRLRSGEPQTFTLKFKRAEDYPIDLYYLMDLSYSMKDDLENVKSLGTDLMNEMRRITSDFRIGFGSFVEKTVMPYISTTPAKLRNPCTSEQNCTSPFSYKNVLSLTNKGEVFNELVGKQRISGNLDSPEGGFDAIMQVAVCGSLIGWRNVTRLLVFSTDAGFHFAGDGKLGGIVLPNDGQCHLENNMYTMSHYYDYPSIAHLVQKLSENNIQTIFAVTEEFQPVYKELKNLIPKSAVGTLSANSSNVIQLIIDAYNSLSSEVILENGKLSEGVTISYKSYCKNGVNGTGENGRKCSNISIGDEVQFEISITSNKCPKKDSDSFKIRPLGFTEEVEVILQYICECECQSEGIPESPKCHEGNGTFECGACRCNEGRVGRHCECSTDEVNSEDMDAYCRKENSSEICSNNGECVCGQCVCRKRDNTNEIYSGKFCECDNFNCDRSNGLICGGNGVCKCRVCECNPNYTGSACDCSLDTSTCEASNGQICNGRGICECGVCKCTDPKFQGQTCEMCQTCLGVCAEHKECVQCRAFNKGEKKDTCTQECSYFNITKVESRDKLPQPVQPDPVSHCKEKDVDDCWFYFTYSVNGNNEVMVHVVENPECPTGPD
T1 sequence (P06756 31-992 limits assumed, chain 1 of 2): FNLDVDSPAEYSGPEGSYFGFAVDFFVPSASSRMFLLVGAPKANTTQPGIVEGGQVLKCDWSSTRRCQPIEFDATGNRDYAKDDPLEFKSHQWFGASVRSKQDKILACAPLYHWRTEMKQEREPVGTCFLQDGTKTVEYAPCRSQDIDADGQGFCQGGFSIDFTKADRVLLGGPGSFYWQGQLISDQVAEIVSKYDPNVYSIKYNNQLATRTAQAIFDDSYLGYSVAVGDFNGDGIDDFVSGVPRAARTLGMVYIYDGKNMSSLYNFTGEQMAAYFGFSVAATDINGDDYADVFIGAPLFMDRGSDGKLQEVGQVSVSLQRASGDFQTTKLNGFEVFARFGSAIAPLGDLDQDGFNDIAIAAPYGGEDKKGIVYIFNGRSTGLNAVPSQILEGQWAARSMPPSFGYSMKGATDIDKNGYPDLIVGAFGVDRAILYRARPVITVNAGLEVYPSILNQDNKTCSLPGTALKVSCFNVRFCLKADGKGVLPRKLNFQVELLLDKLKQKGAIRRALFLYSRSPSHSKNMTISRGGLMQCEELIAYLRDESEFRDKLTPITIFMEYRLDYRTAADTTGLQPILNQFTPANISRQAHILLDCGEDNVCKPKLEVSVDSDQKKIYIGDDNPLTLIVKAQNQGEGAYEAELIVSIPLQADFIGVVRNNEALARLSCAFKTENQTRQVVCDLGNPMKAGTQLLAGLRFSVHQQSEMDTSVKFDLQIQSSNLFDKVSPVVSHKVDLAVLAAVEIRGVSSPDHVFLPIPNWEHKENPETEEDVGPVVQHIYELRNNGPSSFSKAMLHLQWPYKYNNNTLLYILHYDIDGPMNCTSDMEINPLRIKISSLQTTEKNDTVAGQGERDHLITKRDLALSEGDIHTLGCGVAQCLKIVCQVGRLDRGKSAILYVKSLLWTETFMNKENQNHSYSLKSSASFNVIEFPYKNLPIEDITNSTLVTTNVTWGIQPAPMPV
T1 sequence (P05556 21-728 limits assumed, chain 2 of 2): as the sequence (P05556 21-728 limits assumed, chain 2 of 2) above

- binding result [1]: binds
- binding result [2]: binds
B1: monoclonal antibody GP5 (antibody, human IgG1, V domains shown)
VH: QVQLQQSGSELMKPGASVKVSCKASGYTFTNYWIEWIVQRPGHGLEWIGEILPGSVNTNYNAKFKDRATFTADTSTDTASMELSSLTSEDSAVYYCALATPYYALDSWGQGTSVTVSS
VL: DIVMTQAAPSLSVTPGESVSISCRSTESLLHSNGNTYLYWYLQKPGQSPQLLIYRMSNRASGVPDRFSGSGSGTAFTLKIRRVEAEDVGVYYCMQHLEYPFTFGAGTKLELK
notes: Full IgG made in HEK293F cells; The humanized VH is joined to a human IgG1 heavy chain constant region (CH1, CH2, CH3) and the VL to a human Ckappa; also called humanized antibody GP5; modified monoclonal antibody (GP5)
